Reference: paper PMC2615091

Target: lamin B1 (mouse (endogenous in mouse embryonic fibroblasts)) (UniProt P14733)
Test: FRET or BRET

UniProt P14733, sequence (P14733 whole entry): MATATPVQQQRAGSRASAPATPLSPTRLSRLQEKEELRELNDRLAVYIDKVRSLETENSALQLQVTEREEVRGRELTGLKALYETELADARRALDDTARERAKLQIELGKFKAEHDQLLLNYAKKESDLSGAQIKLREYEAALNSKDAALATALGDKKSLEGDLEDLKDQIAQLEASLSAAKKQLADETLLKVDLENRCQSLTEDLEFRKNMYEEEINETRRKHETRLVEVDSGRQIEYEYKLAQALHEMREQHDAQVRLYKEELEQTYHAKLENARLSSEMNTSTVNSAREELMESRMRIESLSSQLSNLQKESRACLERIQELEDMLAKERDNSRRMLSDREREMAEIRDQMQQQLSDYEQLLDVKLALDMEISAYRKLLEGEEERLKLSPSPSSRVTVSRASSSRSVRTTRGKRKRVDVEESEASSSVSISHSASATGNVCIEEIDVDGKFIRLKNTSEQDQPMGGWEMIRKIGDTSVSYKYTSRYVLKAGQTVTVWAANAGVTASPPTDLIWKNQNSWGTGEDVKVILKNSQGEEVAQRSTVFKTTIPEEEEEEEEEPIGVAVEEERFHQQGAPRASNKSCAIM

Substance: Oct-1–EGFP (from UniProt P14859 1-743) (natural protein)
- FRET efficiency: 4.63%
